The target in the test is Human PSMA (Prostate-Specific Membrane Antigen) (human) (UniProt Q04609). Briefly: ELISA, human PSMA coated on plate, anti-human-IgG-HRP detection. (An ELISA detects its analyte on a solid surface through an enzyme-linked reagent.)

What is called EC50 is the concentration needed to bring the measured effect to its halfway point. Read a high EC50 as a less potent agent.

Chain of Human PSMA (Prostate-Specific Membrane Antigen) (human) (Q04609 44-750 limits assumed): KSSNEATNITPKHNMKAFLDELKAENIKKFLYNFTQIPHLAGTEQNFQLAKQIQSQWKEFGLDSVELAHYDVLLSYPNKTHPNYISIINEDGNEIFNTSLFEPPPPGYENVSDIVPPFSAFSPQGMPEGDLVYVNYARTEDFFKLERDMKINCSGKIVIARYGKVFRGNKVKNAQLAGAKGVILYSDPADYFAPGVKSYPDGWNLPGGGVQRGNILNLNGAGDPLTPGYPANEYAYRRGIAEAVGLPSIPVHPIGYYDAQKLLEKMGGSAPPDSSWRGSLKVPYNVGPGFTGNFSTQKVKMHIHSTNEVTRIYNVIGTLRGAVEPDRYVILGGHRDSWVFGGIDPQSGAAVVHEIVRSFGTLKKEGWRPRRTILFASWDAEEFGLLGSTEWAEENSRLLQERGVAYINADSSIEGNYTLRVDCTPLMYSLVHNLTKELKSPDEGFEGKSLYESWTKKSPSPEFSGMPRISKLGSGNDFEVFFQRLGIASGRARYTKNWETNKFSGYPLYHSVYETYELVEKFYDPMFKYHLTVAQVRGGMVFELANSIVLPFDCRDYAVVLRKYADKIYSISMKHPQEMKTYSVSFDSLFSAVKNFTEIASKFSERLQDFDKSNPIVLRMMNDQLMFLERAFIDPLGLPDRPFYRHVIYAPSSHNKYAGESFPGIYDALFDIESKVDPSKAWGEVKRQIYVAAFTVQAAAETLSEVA

In turn, J591 (antibody) registered an EC50 of 0.271 nM. In other words, the sub-nanomolar range.

Values taken from US20250186604A1, “ANTI-PSMA ANTIBODY CONJUGATES” (ADC THERAPEUTICS SA, priority 2023, published 2025).
